From doi:10.1101/2023.03.29.533101 (bioRxiv, 2023)
Where two headings read alike, the source gives them in different places.

B1: OpgD from E. coli (EcOpgD) D388N mutant (enzyme, Escherichia coli, UniProt P40120 33-551, looked up)
chain: ADSDIADGQTQRFDFSILQSMAHDLAQTAWRGAPRPLPDTLATMTPQAYNSIQYDAEKSLWHNVENRQLDAQFFHMGMGFRRRVRMFSVDPATHLAREIHFRPELFKYNDAGVDTKQLEGQSDLGFAGFRVFKAPELARRDVVSFLGASYFRAVDDTYQYGLSARGLAIDTYTDSKEEFPDFTAFWFDTVKPGATTFTVYALLDSASITGAYKFTIHCEKSQVIMDVENHLYARKDIKQLGIAPMTSMFSCGTNERRMCDTIHPQIHDSDRLSMWRGNGEWICRPLNNPQKLQFNAYTDNNPKGFGLLQLDRDFSHYQDIMGWYNKRPSLWVEPRNKWGKGTIGLMEIPTTGETLNNIVCFWQPEKAVKAGDEFAFQYRLYWSAQPPVHCPLARVMATRTGMGGFSEGWAPGEHYPEKWARRFAVDFVGGDLKAAAPKGIEPVITLSSGEAKQIEILYIEPIDGYRIQFDWYPTSDSTDPVDMRMYLRCQGDAISETWLYQYFPPAPDKRQYVDDRVMS
B2: OpgG from E. coli (EcOpgG) D361N mutant (enzyme, Escherichia coli, UniProt P33136 23-511, looked up)
chain: FSIDDVAKQAQSLAGKGYETPKSNLPSVFRDMKYADYQQIQFNHDKAYWNNLKTPFKLEFYHQGMYFDTPVKINEVTATAVKRIKYSPDYFTFGDVQHDKDTVKDLGFAGFKVLYPINSKDKNDEIVSMLGASYFRVIGAGQVYGLSARGLAIDTALPSGEEFPRFKEFWIERPKPTDKRLTIYALLDSPRATGAYKFVVMPGRDTVVDVQSKIYLRDKVGKLGVAPLTSMFLFGPNQPSPANNYRPELHDSNGLSIHAGNGEWIWRPLNNPKHLAVSSFSMENPQGFGLLQRGRDFSRFEDLDDRYDLRPSAWVTPKGEWGKGSVELVEIPTNDETNNNIVAYWTPDQLPEPGKEMNFKYTITFSRDEDKLHAPDNAWVQQTRRSTGDVKQSNLIRQPDGTIAFVVDFTGAEMKKLPEDTPVTAQTSIGDNGEIVESTVRYNPVTKGWRLVMRVKVKDAKKTTEMRAALVNADQTLSETWSYQLPANE

Experiments:
crystal structure [1] = target: the molecule itself; experiment: crystal structure
crystal structure [2] = target: the molecule itself; experiment: crystal structure; remark: listed apart in the source

| Protein | binding result (crystal structure [1]) | binding result (crystal structure [2]) |
| --- | --- | --- |
| B1 | binds |  |
| B2 |  | binds |
